The values that follow come from article PMC3533786 (Molecular Microbiology, 2012).

Data set [1] deals with Rap1a (Resistance associated protein 1a), without its N-terminal signal peptide, His6-tagged (Serratia marcescens Db10). Put plainly: SEC.
In data set [2] the target is Rap2a (Resistance associated protein 2a), without its N-terminal signal peptide, His6-tagged (Serratia marcescens Db10). The experiment in a line: SEC.
The target of data set [3] is Rap2b (Resistance associated protein 2b), without its N-terminal signal peptide, His6-tagged (Serratia marcescens Db10). The experiment in a line: SEC.
For data set [4], the target named is Rap1a (Resistance associated protein 1a), without its N-terminal signal peptide, His6-tagged (Serratia marcescens Db10). Put plainly: SEC + other: quantitative in-gel SYPRO Orange staining.
Data set [5] concerns the target Tse1 (Pseudomonas aeruginosa) (UniProt Q9I2Q1). Conditions: cited from earlier work.
Data set [6] deals with the molecule itself. Put plainly: SEC.

In turn, “Rap1a (Resistance associated protein 1a), without its N-terminal signal peptide, His6-tagged (natural protein)” yielded a stoichiometry N in data set [1] of 2.

The molecule “Rap2a (Resistance associated protein 2a), without its N-terminal signal peptide, His6-tagged (natural protein)” registered a stoichiometry N in data set [2] of 2.

The molecule “Rap2b (Resistance associated protein 2b), without its N-terminal signal peptide, His6-tagged (natural protein)” gave a stoichiometry N in data set [3] of 2.

Take “Ssp1 (Secreted small protein 1), His6-tagged recombinant (natural protein)”: the stoichiometry N (Ssp1 per Rap1a (molar)) in data set [4] came out at 1.

On to Tsi1 (from UniProt Q9I2Q0), for which the Kd in data set [5] is 3 nM.

B1: Rap1b (Resistance associated protein 1b), without its N-terminal signal peptide, His6-tagged (natural protein)
chain: APIQDPVAFIKQMPYHQVVKELALSRCLAQVSDSDKAFSLDAARTANAMREWMPFDIESGDEKINVLIDKYKSRINEFHSETKDKSQGVTLNCLRLYHSPELDKLSRQLIAGNPDRTWNQDNAK
modifications: disulphide bond Cys54-Cys120
B1: in data set [6], the “stoichiometry N” value worked out at 2.
